According to patent US20250066745A1, “MUTANTS AND USE THEREOF” (BGI SHENZHEN, priority 2021, published 2025):

Experiments:
[1] = Luminescence activity assay of purified Gaussia luciferase mutants on coelenterazine; format: biochemical; set-up: key to Activity of mutant relative to wild-type Gaussia luciferase without the signal peptide: ratio of mutant luminescence intensity to wild-type Gaussia luciferase; conditions: Substrate CTZ (Table 16)
Description: (§1) In this Example, the protein concentration was determined with a BCA quantitative kit (Thermo Scientific™ Pierce™ BCA Protein Assay Kit) accurately. The purified luciferase obtained in Example 5 was diluted with diluent (50 mM Tris-HCl, pH 8.0, 100 mM NaCl, 0.1% (v/v) Tween-20) to 1 μg/mL. The diluted luciferase, taken for 10 μL, was moved into a black 96-well plate, then added with 90 μL of the substrates coelenterazine, fluoro-coelenterazine or coelenterazine derivative ZS2 (purchased from Biolab) which was diluted into 100 μM with the same diluent, and the luminescence intensity of the plate was read with a self-luminescence module of a microplate reader. The mutation site of the mutant, the measured luminescence intensity, the ratio of luminescence intensities of the advantageous mutants to the wild-type Gaussia luciferase without the signal peptide having the sequence shown in SEQ ID NO: 3 are shown in Table 15. The results of catalytic activity assay of the advantageous mutants relative to the wild-type Gaussia luciferase without the signal peptide having the sequence shown in SEQ ID NO: 3 on substrate coelenterazine are shown in FIG. 6. […] The results of catalytic activity assay of the advantageous mutants relative to the wild-type Gaussia luciferase without the signal peptide having the sequence shown in SEQ ID NO: 3 on substrate fluoro-coelenterazine are shown in FIG. 7.
(§2) The new mutant library constructed in Example 7 was screened and tested for substrate specificity. Expression and purification schemes were the same as that in Example 5, and the activity assay scheme was the same as that in Example 6. The respective catalytic activities of combinatorial mutants on coelenterazine, fluoro-coelenterazine or coelenterazine derivative ZS2, and coelenterazine derivative ZS26 (purchased from BIOLAB) were assayed, and comparisons among the substrate specificities of the combinatorial mutants were based on the ratios of catalytic activities on two corresponding substrates.

[2] = Luminescence activity assay of purified Gaussia luciferase mutants on coelenterazine derivative ZS2; format: biochemical; set-up: key to Activity of mutant relative to wild-type Gaussia luciferase without the signal peptide: ratio of mutant luminescence intensity to wild-type Gaussia luciferase; conditions: Substrate ZS2 (Table 16)
Description: as §1, §2

| Molecule | Activity of mutant relative to wild-type Gaussia luciferase without the signal peptide [1] | Activity of mutant relative to wild-type Gaussia luciferase without the signal peptide [2] |
| --- | --- | --- |
| F26R N27D V29C A30G V31L A32D S33V A36V T37S: Gaussia luciferase mutant (protein, SIGNAL (1)..(17), Gaussia luciferase mutant) MGVKVLFALICIAVAEAKPTENNEDRDICGLDVNFVSTDLDADRGKLPGKKLPLEVLKEMEANARKAGCTRGCLICLSHIKCTPKMKKFIPGRCHTYEGDKESAQGGIGEAIVDIPEIPGFKDLEPMEQFIAQVDLCVDCTTGCLKGLANVQCSDLLKKWLPQRCATFASKIQGQVDKIKGAGGD | 1.308 | 0.128 |
| F26T N27N V29E V31I A32G S33V A36R T37G L40G: Gaussia luciferase mutant (protein, SIGNAL (1)..(17), Gaussia luciferase mutant) MGVKVLFALICIAVAEAKPTENNEDTNIEAIGVNFRGTDGDADRGKLPGKKLPLEVLKEMEANARKAGCTRGCLICLSHIKCTPKMKKFIPGRCHTYEGDKESAQGGIGEAIVDIPEIPGFKDLEPMEQFIAQVDLCVDCTTGCLKGLANVQCSDLLKKWLPQRCATFASKIQGQVDKIKGAGGD | 0.940 | 1.995 |
| F26R V29D A30G A32D A36I T37A L40R: Gaussia luciferase mutant (protein, SIGNAL (1)..(17), Gaussia luciferase mutant) MGVKVLFALICIAVAEAKPTENNEDRNIDGVDSNFIATDRDADRGKLPGKKLPLEVLKEMEANARKAGCTRGCLICLSHIKCTPKMKKFIPGRCHTYEGDKESAQGGIGEAIVDIPEIPGFKDLEPMEQFIAQVDLCVDCTTGCLKGLANVQCSDLLKKWLPQRCATFASKIQGQVDKIKGAGGD | 0.453 | 2.460 |
| F26R V29F A30D V31L S33G T37D L40A: Gaussia luciferase mutant (protein, SIGNAL (1)..(17), Gaussia luciferase mutant) MGVKVLFALICIAVAEAKPTENNEDRNIFDLAGNFADTDADADRGKLPGKKLPLEVLKEMEANARKAGCTRGCLICLSHIKCTPKMKKFIPGRCHTYEGDKESAQGGIGEAIVDIPEIPGFKDLEPMEQFIAQVDLCVDCTTGCLKGLANVQCSDLLKKWLPQRCATFASKIQGQVDKIKGAGGD | 1.017 | 1.781 |

Now from value to molecule:

| Activity of mutant relative to wild-type Gaussia luciferase without the signal peptide [1] | Activity of mutant relative to wild-type Gaussia luciferase without the signal peptide [2] | Molecule |
| --- | --- | --- |
| 1.067 | 0.787 | F26S V29L A30G S33R T37K L40A: Gaussia luciferase mutant (protein, SIGNAL (1)..(17), Gaussia luciferase mutant) MGVKVLFALICIAVAEAKPTENNEDSNILGVARNFAKTDADADRGKLPGKKLPLEVLKEMEANARKAGCTRGCLICLSHIKCTPKMKKFIPGRCHTYEGDKESAQGGIGEAIVDIPEIPGFKDLEPMEQFIAQVDLCVDCTTGCLKGLANVQCSDLLKKWLPQRCATFASKIQGQVDKIKGAGGD |
| 0.423 | 0.115 | F26R V29R A30V V31L S33G A36V T37R: Gaussia luciferase mutant (protein, SIGNAL (1)..(17), Gaussia luciferase mutant) MGVKVLFALICIAVAEAKPTENNEDRNIRVLAGNFVRTDLDADRGKLPGKKLPLEVLKEMEANARKAGCTRGCLICLSHIKCTPKMKKFIPGRCHTYEGDKESAQGGIGEAIVDIPEIPGFKDLEPMEQFIAQVDLCVDCTTGCLKGLANVQCSDLLKKWLPQRCATFASKIQGQVDKIKGAGGD |
